Substrate in data set [1]: C[C@]12CC[C@@H]3c4ccc(O)cc4CC[C@H]3[C@@H]1CC[C@@H]2O
Briefly: Activity of SULT1E1 (unknown origin). The data set is classed as ADME, Homo sapiens.

Substrate in data set [2]: C#C[C@]1(O)CC[C@H]2[C@@H]3CCc4cc(O)ccc4[C@H]3CC[C@@]21C
Kind of data set: Activity of human SULT1A1 expressed in Escherichia coli at 6 uM by Michaelis-Menten equation analysis in presence of PAPS. The data set is classed as ADME.

Substrate in data set [3]: C[C@]12CC[C@@H]3c4ccc(O)cc4CC[C@H]3[C@@H]1CC[C@@H]2O
Kind of data set: Activity of human SULT1A1 expressed in Escherichia coli at 20 uM by Michaelis-Menten equation analysis in presence of PAPS. The format is ADME.

B1: Sulfotransferase 1E1 (Homo sapiens) (protein)
chain: MNSELDYYEKFEEVHGILMYKDFVKYWDNVEAFQARPDDLVIATYPKSGTTWVSEIVYMIYKEGDVEKCKEDVIFNRIPFLECRKENLMNGVKQLDEMNSPRIVKTHLPPELLPASFWEKDCKIIYLCRNAKDVAVSFYYFFLMVAGHPNPGSFPEFVEKFMQGQVPYGSWYKHVKSWWEKGKSPRVLFLFYEDLKEDIRKEVIKLIHFLERKPSEELVDRIIHHTSFQEMKNNPSTNYTTLPDEIMNQKLSPFMRKGITGDWKNHFTVALNEKFDKHYEQQMKESTLKFRTEI
Turning to B1, the Km (in general, the substrate concentration at which the rate is half of its maximum) in data set [1] is 0.004 µM.

B2: Sulfotransferase 1A1 (Homo sapiens) (protein)
chain: MELIQDTSRPPLEYVKGVPLIKYFAEALGPLQSFQARPDDLLISTYPKSGTTWVSQILDMIYQGGDLEKCHRAPIFMRVPFLEFKAPGIPSGMETLKDTPAPRLLKTHLPLALLPQTLLDQKVKVVYVARNAKDVAVSYYHFYHMAKVHPEPGTWDSFLEKFMVGEVSYGSWYQHVQEWWELSRTHPVLYLFYEDMKENPKREIQKILEFVGRSLPEETVDFVVQHTSFKEMKKNPMTNYTTVPQEFMDHSISPFMRKGMAGDWKTTFTVAQNERFDADYAEKMAGCSLSFRSEL
As to B2, the Km in data set [2] was 0.45 µM; in data set [3], 0.36 µM.

Values taken from ChEMBL document CHEMBL3525919, “Potent inhibition of human sulfotransferase 1A1 by 17α-ethinylestradiol: role of 3'-phosphoadenosine 5'-phosphosulfate binding and structural rearrangements in regulating inhibition and activity” (Drug Metab Dispos, 2012).
